Measurements taken from patent publication US20070207960.

Target: full-length, relipidated human tissue factor (UniProt P13726)
Sequence (P13726 33-295): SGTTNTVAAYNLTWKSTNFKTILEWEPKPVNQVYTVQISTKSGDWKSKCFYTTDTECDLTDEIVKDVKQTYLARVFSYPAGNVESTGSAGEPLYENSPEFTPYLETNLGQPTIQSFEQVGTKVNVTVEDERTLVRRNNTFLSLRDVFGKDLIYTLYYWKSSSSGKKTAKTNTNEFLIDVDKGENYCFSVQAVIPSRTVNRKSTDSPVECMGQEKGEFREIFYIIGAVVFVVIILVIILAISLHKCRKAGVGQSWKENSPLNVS

rFVIIa(K62E)-FFR
prolongation of the clotting time of human and rabbit plasma (FIG. 6): rFVIIa(K62E)-FFR is a superior inhibitor of coagulation versus both rFVIIa(wt)-FFR and pdFVIIa-FFR at molar ratios of inhibitor:plasma FVII as low as 0.25:1 in both human and rabbit plasma
